Assay results taken from PMC10080908.

Molecular target: RNF111 RING (Homo sapiens), Q6ZNA4
Sequence (Q6ZNA4 939-986): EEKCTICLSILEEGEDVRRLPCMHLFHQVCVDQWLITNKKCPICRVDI

Kd: 1000 nM
B1: UBXN7 UAS, O94888 (protein)
chain: IDKKLTTLADLFRPPIDLMHKGSFETAKECGQMQNKWLMINIQNVQDFACQCLNRDVWSNEAVKNIIREHFIFWQVYHDSEEGQRYIQFYKLGDFPYVSILDPRTGQKLVEWHQLDVSSFLDQVTGFLGE
